We go through seven molecules from paper PMC9482650, “Quantitative fragmentomics allow affinity mapping of interactomes” (Nature Communications, 2022).

Common to all, as to assay: holdup assay
What all share (design): key: below the threshold = too weak to quantify, mostly under pKd 3.1 to 4

The target in one assay is O75970. The note with it: plain residues with an end cap or a label only (N-terminal biotin on a linker: ttds).
The next assay deals with Q92614. The note with it: plain residues with an end cap or a label only (N-terminal biotin on a linker: ttds).
The target in the next assay is Q96FS4. The note with it: plain residues with an end cap or a label only (N-terminal biotin on a linker: ttds).
The next assay deals with Q70Z35. The note with it: plain residues with an end cap or a label only (N-terminal biotin on a linker: ttds).
A further assay deals with Q9H190. The note with it: plain residues with an end cap or a label only (N-terminal biotin on a linker: ttds).
The target of the next assay is Q8TEW0. The note with it: plain residues with an end cap or a label only (N-terminal biotin on a linker: ttds).
For a further assay, the target named is Q96SB3. The note with it: plain residues with an end cap or a label only (N-terminal biotin on a linker: ttds).
The next assay addresses Q9P227. The note with it: plain residues with an end cap or a label only (N-terminal biotin on a linker: ttds).
The target in another assay is Q12923. The note with it: plain residues with an end cap or a label only (N-terminal biotin on a linker: ttds).
For a further assay, the target named is Q8IUC4. The note with it: plain residues with an end cap or a label only (N-terminal biotin on a linker: ttds).
The target in the next assay is Q13009. The note with it: plain residues with an end cap or a label only (N-terminal biotin on a linker: ttds).
For another assay, the target named is Q9C0E4. The note with it: plain residues with an end cap or a label only (N-terminal biotin on a linker: ttds).
A further assay deals with O00233. The note with it: plain residues with an end cap or a label only (N-terminal biotin on a linker: ttds).
The target in a further assay is Q6ZWJ1. The note with it: plain residues with an end cap or a label only (N-terminal biotin on a linker: ttds).
A further assay concerns the target Q9UDY2. The note with it: plain residues with an end cap or a label only (N-terminal biotin on a linker: ttds).
A further assay addresses Q9ULJ8. The note with it: plain residues with an end cap or a label only (N-terminal biotin on a linker: ttds).
The target of a further assay is O00560. The note with it: plain residues with an end cap or a label only (N-terminal biotin on a linker: ttds).
Another assay addresses Q9Y3R0. The note with it: plain residues with an end cap or a label only (N-terminal biotin on a linker: ttds).
In another assay the target is Q9NR12. The note with it: plain residues with an end cap or a label only (N-terminal biotin on a linker: ttds).
In another assay the target is O60759. The note with it: plain residues with an end cap or a label only (N-terminal biotin on a linker: ttds).
The next assay has as its target O15021. The note with it: plain residues with an end cap or a label only (N-terminal biotin on a linker: ttds).
The target in the next assay is Q96JB8. The note with it: plain residues with an end cap or a label only (N-terminal biotin on a linker: ttds).
Another assay concerns the target Q5TCQ9. The note with it: plain residues with an end cap or a label only (N-terminal biotin on a linker: ttds).
The target in the next assay is Q96HC4. The note with it: plain residues with an end cap or a label only (N-terminal biotin on a linker: ttds).
Another assay addresses O43166. The note with it: plain residues with an end cap or a label only (N-terminal biotin on a linker: ttds).
In the next assay the target is LNX1_4, Q8TBB1.
Chain of LNX1_4, Q8TBB1 (Q8TBB1 631-726): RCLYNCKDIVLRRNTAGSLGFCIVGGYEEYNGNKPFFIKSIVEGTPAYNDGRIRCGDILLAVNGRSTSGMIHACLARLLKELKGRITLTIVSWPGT
A further assay has as its target T1, LNX2_1, Q8N448.
T1 sequence (Q8N448 228-328, limits assumed, looked up): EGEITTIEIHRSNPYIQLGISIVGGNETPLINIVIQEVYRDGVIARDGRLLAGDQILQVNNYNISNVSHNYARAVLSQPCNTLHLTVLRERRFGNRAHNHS

The next assay addresses Q8TB45. The note with it: plain residues with an end cap or a label only (N-terminal biotin on a linker: ttds).
The target of a further assay is Q8TDM6. The note with it: plain residues with an end cap or a label only (N-terminal biotin on a linker: ttds).
Setting [1] is: plain residues with an end cap or a label only (N-terminal biotin on a linker: ttds).
Where [2] appears, read: plain residues with an end cap or a label only (N-terminal biotin on a linker: none).

By pKd is commonly meant −log10 of the Kd, conventionally taken in molar units. With RPLPRKVSQL [DOCK4, Q8N1I0], the pKd result with O75970, with Q92614, in the assay with Q96FS4, with Q70Z35, with Q9H190 and with Q8TEW0 was “below the threshold” each time. In addition, the pKd entry with Q96SB3, with Q9P227, in the assay with Q12923, with Q8IUC4, with Q13009 and in the assay with Q9C0E4 was “below the threshold” throughout. Further, the pKd result with O00233, with Q6ZWJ1, with Q9UDY2, with Q9ULJ8, with O00560 and in the assay with Q9Y3R0 was “below the threshold” in each case. Further, the pKd result with Q9NR12, in the assay with O60759, in the assay with O15021, with Q96JB8, with Q5TCQ9 and with Q96HC4 was “below the threshold” in each case. The pKd result with O43166 was “below the threshold”.
On to SKPTRRETEV [HPV35-E6, P27228], for which the pKd is 3.49 in the assay with LNX1_4, Q8TBB1 (setting [1]) and “below the threshold” in the assay with LNX2_1, Q8N448 (setting [1]).
For RLQRRRETQV [HPV18-E6, P06463] the same measures were 4.03 and “below the threshold”.
Turning to RHTTSTETAV [HPV30-E6, P36809], the pKd result in the assay with O75970, with Q92614, with Q8TB45, with Q96FS4, with Q70Z35 and with Q9H190 was “below the threshold” throughout. Further, the pKd entry with Q8TEW0, with Q96SB3, with Q9P227, with Q12923, with Q8IUC4 and with Q13009 was “below the threshold” throughout. Besides, the pKd result with Q9C0E4, in the assay with O00233, with Q6ZWJ1, with Q9UDY2, in the assay with Q9ULJ8 and in the assay with Q8TDM6 was “below the threshold” throughout. The pKd entry with O00560, with Q9Y3R0, with Q9NR12, in the assay with O60759, in the assay with O15021 and with Q96JB8 was “below the threshold” each time. Moreover, the pKd entry in the assay with Q5TCQ9, with Q96HC4 and with O43166 was “below the threshold” throughout.
On to RLPKIKETTV [FRMPD4, Q14CM0], for which the negative-log Kd (pKd) result with O75970, with Q92614, with Q96FS4, with Q70Z35, in the assay with Q9H190 and with Q8TEW0 was “below the threshold” in each case. Also, the pKd entry with Q96SB3, with Q9P227, in the assay with Q12923, in the assay with Q8IUC4, with Q13009 and with Q9C0E4 was “below the threshold” throughout. In addition, the pKd entry with O00233, in the assay with Q6ZWJ1, with Q9UDY2, with Q9ULJ8, with O00560 and in the assay with Q9Y3R0 was “below the threshold” each time. Further, the pKd result with Q9NR12, in the assay with O60759, with O15021, with Q96JB8, in the assay with Q5TCQ9 and in the assay with Q96HC4 was “below the threshold” in each case. The pKd entry with O43166 was “below the threshold”.
With QRQARSETLV [HPV59-E6, Q81964], the pKd entry in the assay with O75970, with Q92614, with Q8TB45, with Q96FS4, with Q70Z35 and in the assay with Q9H190 was “below the threshold” each time. For the same molecule, the pKd result with Q8TEW0, with Q96SB3, with Q9P227, in the assay with Q12923, in the assay with Q8IUC4 and with Q13009 was “below the threshold” each time. Besides, the pKd entry with Q9C0E4, with O00233, in the assay with Q6ZWJ1, in the assay with Q9UDY2, with Q9ULJ8 and in the assay with Q8TDM6 was “below the threshold” in each case. The pKd result with O00560, with Q9Y3R0, with Q9NR12, with O60759, with O15021 and with Q96JB8 was “below the threshold” each time. The pKd entry in the assay with Q5TCQ9, in the assay with Q96HC4 and with O43166 was “below the threshold” each time.
Consider NLNSSRVPDLLV [SARS-CoV2-E, P0DTC4], for which the pKd result is listed as “below the threshold” in the assay with LNX1_4, Q8TBB1 (setting [2]) and “below the threshold” with LNX2_1, Q8N448 (setting [2]).
